Laboratory results taken from patent publication US20230203177A1 (Bristol-Myers Squibb, published 2023).
Substitutions are numbered along the chain they refer to. Names and notes keep the numbering of the source.

B1: M4 (HC-K12E / LC-wt) (antibody, human IgG1, kappa)
heavy: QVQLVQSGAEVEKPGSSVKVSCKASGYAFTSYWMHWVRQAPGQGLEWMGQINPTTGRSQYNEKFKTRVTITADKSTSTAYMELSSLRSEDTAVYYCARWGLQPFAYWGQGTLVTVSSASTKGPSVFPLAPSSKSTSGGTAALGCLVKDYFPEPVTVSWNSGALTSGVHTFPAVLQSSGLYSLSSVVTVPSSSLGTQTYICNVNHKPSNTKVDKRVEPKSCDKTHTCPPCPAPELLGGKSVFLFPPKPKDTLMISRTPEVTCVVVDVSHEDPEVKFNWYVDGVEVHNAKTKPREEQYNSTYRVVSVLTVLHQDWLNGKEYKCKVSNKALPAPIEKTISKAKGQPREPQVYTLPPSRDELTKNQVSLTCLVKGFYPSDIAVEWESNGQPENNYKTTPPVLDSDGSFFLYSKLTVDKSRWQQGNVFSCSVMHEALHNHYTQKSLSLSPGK
light: DIQMTQSPSFLSASVGDRVTITCKASQDVSTAVAWYQQKPGKAPKLLIYSASYRYTGVPSRFSGSGSGTDFTLTISSLQPEDFATYYCQQHYSTPWTFGGGTKVEIKRTVAAPSVFIFPPSDEQLKSGTASVVCLLNNFYPREAKVQWKVDNALQSGNSQESVTEQDSKDSTYSLSSTLTLSKADYEKHKVYACEVTHQGLSSPVTKSFNRGEC
notes: IgG1-P238K; two production batches; also called HC4/LC1; M4-b
B2: M13 (HC-E46K,E62K / LC-wt) (antibody, human IgG1, kappa)
heavy: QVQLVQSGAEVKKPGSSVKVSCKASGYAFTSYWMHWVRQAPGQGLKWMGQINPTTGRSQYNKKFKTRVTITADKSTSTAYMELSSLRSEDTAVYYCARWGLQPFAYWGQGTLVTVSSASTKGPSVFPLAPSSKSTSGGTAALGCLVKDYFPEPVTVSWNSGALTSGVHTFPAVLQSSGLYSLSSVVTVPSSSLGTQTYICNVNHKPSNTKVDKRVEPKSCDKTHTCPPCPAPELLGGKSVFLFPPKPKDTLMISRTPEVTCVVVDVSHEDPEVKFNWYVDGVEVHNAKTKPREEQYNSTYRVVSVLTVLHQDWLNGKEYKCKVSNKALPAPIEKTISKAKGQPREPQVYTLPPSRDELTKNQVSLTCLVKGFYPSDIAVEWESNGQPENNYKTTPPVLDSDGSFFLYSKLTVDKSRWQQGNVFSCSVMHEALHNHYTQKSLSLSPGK
light: B1 light
notes: IgG1-P238K; proof of concept control with more positive charge; also called HC13/LC1
B3: M33 (HC-wt / LC-K45E) (antibody, human IgG1, kappa)
heavy: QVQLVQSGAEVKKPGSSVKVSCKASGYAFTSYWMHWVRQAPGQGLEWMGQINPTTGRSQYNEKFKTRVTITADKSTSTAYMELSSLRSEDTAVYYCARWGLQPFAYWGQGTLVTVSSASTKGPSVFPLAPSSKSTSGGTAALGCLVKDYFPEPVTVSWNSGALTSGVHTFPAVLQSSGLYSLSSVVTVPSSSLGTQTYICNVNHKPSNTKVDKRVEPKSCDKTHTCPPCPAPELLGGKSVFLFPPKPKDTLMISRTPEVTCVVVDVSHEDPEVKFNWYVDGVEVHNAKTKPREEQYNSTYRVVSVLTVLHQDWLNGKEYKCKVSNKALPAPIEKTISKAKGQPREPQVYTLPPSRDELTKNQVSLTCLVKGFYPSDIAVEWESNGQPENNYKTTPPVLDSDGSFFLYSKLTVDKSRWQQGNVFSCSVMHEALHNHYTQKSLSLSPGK
light: B1 light with K45E
notes: IgG1-P238K; also called HC1/LC3
B4: M10 (HC-R67E / LC-wt) (antibody, human IgG1, kappa)
heavy: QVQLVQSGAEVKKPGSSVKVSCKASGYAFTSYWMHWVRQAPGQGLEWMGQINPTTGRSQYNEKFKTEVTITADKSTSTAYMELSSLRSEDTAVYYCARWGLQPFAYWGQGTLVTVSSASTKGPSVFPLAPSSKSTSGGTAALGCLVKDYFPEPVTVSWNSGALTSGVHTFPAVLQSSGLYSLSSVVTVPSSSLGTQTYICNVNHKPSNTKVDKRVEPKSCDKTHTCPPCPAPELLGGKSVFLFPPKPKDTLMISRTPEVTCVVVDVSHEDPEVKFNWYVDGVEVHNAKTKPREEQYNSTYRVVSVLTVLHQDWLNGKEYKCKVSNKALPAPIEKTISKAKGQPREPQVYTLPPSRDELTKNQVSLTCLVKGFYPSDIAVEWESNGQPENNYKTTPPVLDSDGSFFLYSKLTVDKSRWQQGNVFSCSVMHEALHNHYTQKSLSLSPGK
light: B1 light
notes: IgG1-P238K; also called HC10/LC1
B5: M85 (HC-K12E,K13Q,K23E / LC-K107Q,R108Q) (antibody, human IgG1, kappa)
heavy: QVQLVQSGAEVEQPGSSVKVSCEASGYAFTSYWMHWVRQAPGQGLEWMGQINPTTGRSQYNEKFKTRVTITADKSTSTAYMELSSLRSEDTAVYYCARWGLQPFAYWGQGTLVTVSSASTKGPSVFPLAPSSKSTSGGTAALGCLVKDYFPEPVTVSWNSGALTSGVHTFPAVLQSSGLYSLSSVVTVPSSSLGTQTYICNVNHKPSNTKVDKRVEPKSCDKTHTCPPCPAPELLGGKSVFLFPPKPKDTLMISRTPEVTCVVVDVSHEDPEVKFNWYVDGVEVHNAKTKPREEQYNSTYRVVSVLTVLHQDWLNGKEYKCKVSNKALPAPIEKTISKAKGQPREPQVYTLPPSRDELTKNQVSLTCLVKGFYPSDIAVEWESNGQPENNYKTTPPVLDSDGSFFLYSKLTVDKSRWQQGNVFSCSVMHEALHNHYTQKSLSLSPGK
light: B1 light with K107Q, R108Q
notes: IgG1-P238K; also called HC5/LC6
B6: M72 (HC-R38Q,K63Q,R67Q / LC-R61Q) (antibody, human IgG1, kappa, V domains shown)
VH: QVQLVQSGAEVKKPGSSVKVSCKASGYAFTSYWMHWVQQAPGQGLEWMGQINPTTGRSQYNEQFKTQVTITADKSTSTAYMELSSLRSEDTAVYYCARWGLQPFAYWGQGTLVTVSS
VL: DIQMTQSPSFLSASVGDRVTITCKASQDVSTAVAWYQQKPGKAPKLLIYSASYRYTGVPSQFSGSGSGTDFTLTISSLQPEDFATYYCQQHYSTPWTFGGGTKVEIKR
notes: IgG1-P238K; also called HC8/LC5
B7: M71 (HC-K23E / LC-R61Q) (antibody, human IgG1, kappa)
heavy: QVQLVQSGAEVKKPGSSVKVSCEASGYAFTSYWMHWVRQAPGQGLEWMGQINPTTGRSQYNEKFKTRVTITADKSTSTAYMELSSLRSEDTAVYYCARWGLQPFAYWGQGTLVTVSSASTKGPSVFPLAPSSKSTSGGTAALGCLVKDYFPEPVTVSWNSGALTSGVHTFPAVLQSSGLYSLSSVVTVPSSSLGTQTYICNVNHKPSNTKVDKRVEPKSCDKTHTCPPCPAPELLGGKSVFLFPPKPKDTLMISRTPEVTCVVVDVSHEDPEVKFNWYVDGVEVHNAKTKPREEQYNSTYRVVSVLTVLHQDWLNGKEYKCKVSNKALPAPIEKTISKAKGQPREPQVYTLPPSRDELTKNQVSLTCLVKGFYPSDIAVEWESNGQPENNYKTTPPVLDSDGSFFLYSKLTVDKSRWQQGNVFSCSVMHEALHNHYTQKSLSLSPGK
light: B1 light with R61Q
notes: IgG1-P238K; also called HC7/LC5
B8: M73 (HC-K63Q,R67E / LC-R61Q) (antibody, human IgG1, kappa, V domains shown)
VH: B6 VH with Q38R, Q67E
VL: B6 VL
notes: IgG1-P238K; also called HC9/LC5
B9: M69 (HC-K12E,K13Q,K23E / LC-R61Q) (antibody, human IgG1, kappa)
heavy: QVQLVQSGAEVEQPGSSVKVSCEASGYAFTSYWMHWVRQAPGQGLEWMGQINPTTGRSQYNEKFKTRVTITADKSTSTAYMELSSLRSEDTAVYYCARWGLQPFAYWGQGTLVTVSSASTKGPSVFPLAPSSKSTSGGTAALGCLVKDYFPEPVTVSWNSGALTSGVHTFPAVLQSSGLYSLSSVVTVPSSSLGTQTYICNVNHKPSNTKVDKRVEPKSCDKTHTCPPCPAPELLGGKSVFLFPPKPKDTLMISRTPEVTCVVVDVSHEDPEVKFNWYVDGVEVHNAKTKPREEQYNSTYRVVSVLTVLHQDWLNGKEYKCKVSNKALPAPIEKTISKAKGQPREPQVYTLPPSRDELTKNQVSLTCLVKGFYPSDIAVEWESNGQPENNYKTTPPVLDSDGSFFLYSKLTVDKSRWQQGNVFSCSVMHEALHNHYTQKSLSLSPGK
light: B1 light with R61Q
notes: IgG1-P238K; also called HC5/LC5
B10: M77 (HC-E46K,E62K / LC-R61Q) (antibody, human IgG1, kappa, V domains shown)
VH: B6 VH with Q38R, E46K, E62K, Q63K, Q67R
VL: B6 VL
notes: IgG1-P238K; also called HC13/LC5
B11: M92 (HC-R57E,K74Q / LC-K107Q,R108Q) (antibody, human IgG1, kappa)
heavy: not shown
light: B1 light with K107Q, R108Q
notes: IgG1-P238K; also called HC12/LC6
B12: M82 (HC-K12Q,K13Q / LC-K107Q,R108Q) (antibody, human IgG1, kappa)
heavy: not shown
light: B1 light with K107Q, R108Q
notes: IgG1-P238K; also called HC2/LC6
B13: M93 (HC-E46K,E62K / LC-K107Q,R108Q) (antibody, human IgG1, kappa)
heavy: not shown
light: B1 light with K107Q, R108Q
notes: IgG1-P238K; also called HC13/LC6
B14: M96 (HC-K63Q / LC-K107Q,R108Q) (antibody, human IgG1, kappa)
heavy: not shown
light: B1 light with K107Q, R108Q
notes: IgG1-P238K; also called HC16/LC6
B15: M95 (HC-R67Q / LC-K107Q,R108Q) (antibody, human IgG1, kappa)
heavy: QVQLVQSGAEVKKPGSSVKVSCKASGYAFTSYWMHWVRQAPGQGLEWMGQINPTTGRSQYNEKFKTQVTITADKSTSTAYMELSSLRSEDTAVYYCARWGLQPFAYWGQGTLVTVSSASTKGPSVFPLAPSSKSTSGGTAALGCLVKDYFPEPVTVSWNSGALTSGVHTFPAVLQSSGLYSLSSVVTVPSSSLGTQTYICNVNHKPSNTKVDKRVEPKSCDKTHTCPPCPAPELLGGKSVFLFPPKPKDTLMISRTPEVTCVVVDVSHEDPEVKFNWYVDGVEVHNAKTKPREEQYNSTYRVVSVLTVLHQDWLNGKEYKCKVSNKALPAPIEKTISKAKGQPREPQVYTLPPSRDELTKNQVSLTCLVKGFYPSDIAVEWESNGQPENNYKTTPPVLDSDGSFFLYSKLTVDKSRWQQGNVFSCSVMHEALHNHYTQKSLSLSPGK
light: B1 light with K107Q, R108Q
notes: IgG1-P238K; also called HC15/LC6
B16: M94 (HC-K74T / LC-K107Q,R108Q) (antibody, human IgG1, kappa)
heavy: not shown
light: B1 light with K107Q, R108Q
notes: IgG1-P238K; also called HC14/LC6
B17: M88 (HC-R38Q,K63Q,R67Q / LC-K107Q,R108Q) (antibody, human IgG1, kappa)
heavy: not shown
light: B1 light with K107Q, R108Q
notes: IgG1-P238K; also called HC8/LC6
B18: M75 (HC-R57E / LC-R61Q) (antibody, human IgG1, kappa, V domains shown)
VH: B6 VH with Q38R, R57E, Q63K, Q67R
VL: B6 VL
notes: IgG1-P238K; also called HC11/LC5
B19: M89 (HC-K63Q,R67E / LC-K107Q,R108Q) (antibody, human IgG1, kappa)
heavy: not shown
light: B1 light with K107Q, R108Q
notes: IgG1-P238K; also called HC9/LC6
B20: M86 (HC-K12V,K19S,K23A / LC-K107Q,R108Q) (antibody, human IgG1, kappa)
heavy: not shown
light: B1 light with K107Q, R108Q
notes: IgG1-P238K; also called HC6/LC6
B21: M74 (HC-R67E / LC-R61Q) (antibody, human IgG1, kappa, V domains shown)
VH: B6 VH with Q38R, Q63K, Q67E
VL: B6 VL
notes: IgG1-P238K; also called HC10/LC5
B22: M70 (HC-K12V,K19S,K23A / LC-R61Q) (antibody, human IgG1, kappa, V domains shown)
VH: B6 VH with K12V, K19S, K23A, Q38R, Q63K, Q67R
VL: B6 VL
notes: IgG1-P238K; also called HC6/LC5
B23: M68 (HC-K12E / LC-R61Q) (antibody, human IgG1, kappa)
heavy: not shown
light: B1 light with R61Q
notes: IgG1-P238K; also called HC4/LC5
B24: M78 (HC-K74T / LC-R61Q) (antibody, human IgG1, kappa, V domains shown)
VH: B6 VH with Q38R, Q63K, Q67R, K74T
VL: B6 VL
notes: IgG1-P238K; also called HC14/LC5
B25: M79 (HC-R67Q / LC-R61Q) (antibody, human IgG1, kappa, V domains shown)
VH: B6 VH with Q38R, Q63K
VL: B6 VL
notes: IgG1-P238K; also called HC15/LC5
B26: M91 (HC-R57E / LC-K107Q,R108Q) (antibody, human IgG1, kappa)
heavy: not shown
light: B1 light with K107Q, R108Q
notes: IgG1-P238K; also called HC11/LC6
B27: M90 (HC-R67E / LC-K107Q,R108Q) (antibody, human IgG1, kappa)
heavy: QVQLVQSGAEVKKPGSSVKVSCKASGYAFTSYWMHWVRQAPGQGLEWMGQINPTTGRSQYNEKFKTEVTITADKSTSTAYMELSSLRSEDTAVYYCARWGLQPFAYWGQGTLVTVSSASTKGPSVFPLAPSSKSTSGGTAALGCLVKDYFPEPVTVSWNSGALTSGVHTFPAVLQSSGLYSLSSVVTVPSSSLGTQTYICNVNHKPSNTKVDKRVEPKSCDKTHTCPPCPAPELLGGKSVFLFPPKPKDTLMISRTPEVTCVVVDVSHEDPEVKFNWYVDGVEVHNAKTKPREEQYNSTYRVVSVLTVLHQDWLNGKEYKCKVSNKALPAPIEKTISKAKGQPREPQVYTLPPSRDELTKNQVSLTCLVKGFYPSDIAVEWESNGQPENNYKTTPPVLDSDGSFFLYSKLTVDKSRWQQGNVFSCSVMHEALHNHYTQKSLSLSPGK
light: B1 light with K107Q, R108Q
notes: IgG1-P238K; also called HC10/LC6
B28: M83 (HC-K12Q,K13Q,K23Q / LC-K107Q,R108Q) (antibody, human IgG1, kappa)
heavy: not shown
light: B1 light with K107Q, R108Q
notes: IgG1-P238K; also called HC3/LC6
B29: M84 (HC-K12E / LC-K107Q,R108Q) (antibody, human IgG1, kappa)
heavy: not shown
light: B1 light with K107Q, R108Q
notes: IgG1-P238K; also called HC4/LC6
B30: M76 (HC-R57E,K74Q / LC-R61Q) (antibody, human IgG1, kappa, V domains shown)
VH: B6 VH with Q38R, R57E, Q63K, Q67R, K74Q
VL: B6 VL
notes: IgG1-P238K; also called HC12/LC5
B31: M87 (HC-K23E / LC-K107Q,R108Q) (antibody, human IgG1, kappa)
heavy: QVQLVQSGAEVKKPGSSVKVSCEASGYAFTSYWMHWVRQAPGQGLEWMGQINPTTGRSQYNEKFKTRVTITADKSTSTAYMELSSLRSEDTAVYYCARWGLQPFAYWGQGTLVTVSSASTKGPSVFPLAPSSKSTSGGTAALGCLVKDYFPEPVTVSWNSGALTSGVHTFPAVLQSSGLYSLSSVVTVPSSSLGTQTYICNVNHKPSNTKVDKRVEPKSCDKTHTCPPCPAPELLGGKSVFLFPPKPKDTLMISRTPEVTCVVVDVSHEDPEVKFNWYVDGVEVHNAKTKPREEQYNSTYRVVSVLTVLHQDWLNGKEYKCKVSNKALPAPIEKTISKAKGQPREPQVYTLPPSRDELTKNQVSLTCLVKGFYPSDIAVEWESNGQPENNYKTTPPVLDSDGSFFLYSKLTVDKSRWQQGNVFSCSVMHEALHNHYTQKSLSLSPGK
light: B1 light with K107Q, R108Q
notes: IgG1-P238K; also called HC7/LC6

These binders were tested against T1, soluble human CD40 extracellular domain (human, UniProt P25942 21-193) (assay: SPR, antibody captured from supernatant on protein A chip, soluble hCD40 ECD at 5 and 50 nM (summary table of the 16 chosen antibodies)).
T1 construct: Produced in house; also called hCD40; soluble hCD40 extracellular domain
T1 sequence (P25942 21-193 limits assumed): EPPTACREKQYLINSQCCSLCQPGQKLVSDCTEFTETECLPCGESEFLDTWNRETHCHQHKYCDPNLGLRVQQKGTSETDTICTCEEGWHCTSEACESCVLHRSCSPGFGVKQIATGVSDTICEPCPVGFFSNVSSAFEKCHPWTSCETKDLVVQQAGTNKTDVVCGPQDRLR
Work on B1 yielded a Kd of 3.6 nM.
For B2, the Kd was 8 nM.
B3 showed a Kd of 4 nM.
With B4 the Kd was 3 nM.

These binders were tested against T1, soluble human CD40 extracellular domain (assay: SPR, Ab captured from supernatant on protein A, hCD40 ECD analyte).
Protocol: The titer data (Table 21) were used to normalize the antibody concentration in each supernatant to 3 μg/ml, and these antibodies were captured out of the supernatants on a protein A CMS Series S sensor chip (GE Healthcare), and tested for binding to two concentrations (5 nM and 50 nM) of soluble hCD40 extracellular domain.
CD40 binding SPR of antibody supernatants: Surface plasmon resonance (SPR) studies were conducted on a BIAcore™ T200 instrument (GE Healthcare, Chicago Ill.). A Series S Protein A sensor chip (GE Healthcare, Chicago Ill.) was equilibrated with SPR running buffer of 10 mM NaPO₄, 130 mM NaCl, 0.05% tween 20, (PBS-T) pH 7.2 at 25° C. The 96 antibody supernatants were normalized to a concentration of 3 μg/ml by diluting with PBS-T using a PerkinElmer JANUS® G3 system (PerkinElmer, Akron, Ohio). After priming the system, the 3 μg/ml antibody samples were captured on the protein A surface for 30 s at 10 μl/min Binding of 50 nM and 500 nM human CD40 extracellular domain (produced in house) was evaluated using association time of 180 s at 30 μl/min, followed by a dissociation time of 180 s at 30 μl/min Regeneration between cycles was accomplished using two 15 s injections of 10 mM glycine pH 1.5. […] Data were analyzed using BIAcore™ T200 evaluation software by fitting to a 1:1 Langmuir model.
Binder B1 has a Kd of 3.6 nM.
B5 gave a Kd of 3.3 nM.
B6 gave a Kd of 2.9 nM.
In the case of B7, the Kd is reported as 4.4 nM.
For B8, the Kd was 3 nM.
With B9 the Kd was 3.8 nM.
B10 was tested, and the Kd was 7.9 nM.
With B11 the Kd was 13.4 nM.
For B12, the Kd was 3.2 nM.
Binder B13 has a Kd of 8.1 nM.
For B14, the Kd was 3.9 nM.
B15 showed a Kd of 3.4 nM.
In the case of B16, the Kd is reported as 3.6 nM.
B17 was tested, and the Kd was 3.2 nM.
B18 gave a Kd of 10.5 nM.
For B19, the Kd was 3.3 nM.
Work on B20 yielded a Kd of 3.7 nM.
Work on B21 yielded a Kd of 2.9 nM.
In the case of B22, the Kd is reported as 3.5 nM.
B23 was tested, and the Kd was 3.6 nM.
Binder B24 has a Kd of 4 nM.
With B25 the Kd was 3.5 nM.
Work on B26 yielded a Kd of 9.6 nM.
Binder B2 has a Kd of 8 nM.
B3 was tested, and the Kd was 4 nM.
B4 was tested, and the Kd was 3 nM.
Binder B27 has a Kd of 3 nM.
B28 showed a Kd of 3.6 nM.
With B29 the Kd was 3.3 nM.
Binder B30 has a Kd of 14.8 nM.
Binder B31 has a Kd of 4.3 nM.

Each binder was assayed against T1, soluble human CD40 extracellular domain (assay: SPR, purified Ab on protein A, 6 concentrations of hCD40 ECD).
Protocol: Additionally, to more accurately define the dissociation rate (kd), a longer dissociation time of 360 seconds (s) was used as opposed to the shorter 180 s dissociation that had been used in the supernatant screening experiment.
CD40 binding SPR: SPR studies of the purified antibodies were conducted on BIAcore™ T200 instrument (GE Healthcare, Chicago Ill.). A Series S Protein A sensor chip (GE Healthcare, Chicago Ill.) was equilibrated with SPR running buffer of 10 mM NaPO₄, 130 mM NaCl, 0.05% tween 20, (PBS-T) pH 7.2 at 25° C. The purified antibody samples were diluted to 3 μg/ml in PBS-T and captured on the protein A surface for 30 s at 10 μl/min Binding of 3.91, 7.81, 15.6, 31.3, 62.5, and 125 nM human CD40 extracellular domain (produced in house) was evaluated using association time of 180 s at 30 μl/min, followed by a dissociation time of 360 s at 30 μl/min Regeneration between cycles was accomplished using two 15 s injections of 10 mM glycine pH 1.5. […] Data were analyzed using BIAcore™ T200 evaluation software by fitting to a 1:1 Langmuir model.
B1 showed a Kd of 2.8 nM, a koff of 0.00069 s⁻¹ and a kon of 250000 M⁻¹ s⁻¹.
Binder B2 has a Kd of 8.4 nM, a koff of 0.00068 s⁻¹ and a kon of 81000 M⁻¹ s⁻¹.
B3 gave a Kd of 2.9 nM, a koff of 0.00073 s⁻¹ and a kon of 260000 M⁻¹ s⁻¹.
With B4 the Kd was 2.3 nM, the koff was 0.00067 s⁻¹ and the kon was 290000 M⁻¹ s⁻¹.

What follows are binders tested against human CD40 on primary human tonsillar B cells (human, UniProt P25942 21-277) (assay: cell-based or functional assay).
Sequence of human CD40 on primary human tonsillar B cells (P25942 21-277 limits assumed): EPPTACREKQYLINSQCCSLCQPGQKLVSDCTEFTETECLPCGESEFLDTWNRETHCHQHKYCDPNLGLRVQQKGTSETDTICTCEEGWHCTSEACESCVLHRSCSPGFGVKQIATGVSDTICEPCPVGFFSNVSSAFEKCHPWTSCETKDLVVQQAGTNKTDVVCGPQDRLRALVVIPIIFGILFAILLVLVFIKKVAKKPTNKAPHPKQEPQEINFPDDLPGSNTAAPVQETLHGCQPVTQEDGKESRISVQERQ
In the case of B1, the “IC50, inhibition of tonsillar human B cell proliferation stimulated by IZ-hCD40L trimer (M4 lot 1)” value is reported as 0.0029 µg/mL, the “IC50, inhibition of tonsillar human B cell proliferation stimulated by IZ-hCD40L trimer (M4 lot 2)” value is reported as 0.0008 µg/mL and the “IC50, inhibition of tonsillar human B cell proliferation stimulated by hCD40L expressing CHO cells (M4 lot 1)” value is reported as 0.0237 µg/mL. The “IC50, inhibition of tonsillar human B cell proliferation stimulated by hCD40L expressing CHO cells (M4 lot 2)” value was 0.0396 µg/mL.
In the case of B2, the “IC50, inhibition of tonsillar human B cell proliferation stimulated by IZ-hCD40L trimer” value is reported as 0.0033 µg/mL and the “IC50, inhibition of tonsillar human B cell proliferation stimulated by hCD40L expressing CHO cells” value is reported as 0.0208 µg/mL.
In the case of B3, the “IC50, inhibition of tonsillar human B cell proliferation stimulated by IZ-hCD40L trimer” value is reported as 0.0009 µg/mL and the “IC50, inhibition of tonsillar human B cell proliferation stimulated by hCD40L expressing CHO cells” value is reported as 0.0575 µg/mL.
In the case of B4, the “IC50, inhibition of tonsillar human B cell proliferation stimulated by IZ-hCD40L trimer” value is reported as 0.0277 µg/mL and the “IC50, inhibition of tonsillar human B cell proliferation stimulated by hCD40L expressing CHO cells” value is reported as 0.353 µg/mL.
